Results on two molecules are retold here after publication PMC5889556.

A word on the Kd: it is the constant that tells how readily two partners part at equilibrium.

One experiment has as its target FtsZ (Bacillus subtilis) (UniProt P17865). The following applies: cited from earlier work.
Experiment [1] concerns the target ClpXP complex (B. subtilis) (UniProt P50866).

Consider UgtP (from UniProt P54166), for which the Kd with FtsZ (Bacillus subtilis) was 38 nM.

B1: His-UgtP (enzyme)
chain: MNTNKRVLILTANYGNGHVQVAKTLYEQCVRLGFQHVTVSNLYQESNPIVSEVTQYLYLKSFSIGKQFYRLFYYGVDKIYNKRKFNIYFKMGNKRLGELVDEHQPDIIINTFPMIVVPEYRRRTGRVIPTFNVMTDFCLHKIWVHENVDKYYVATDYVKEKLLEIGTHPSNVKITGIPIRPQFEESMPVGPIYKKYNLSPNKKVLLIMAGAHGVLKNVKELCENLVKDDQVQVVVVCGKNTALKESLSALEAENGDKLKVLGYVERIDELFRITDCMITKPGGITLTEATAIGVPVILYKPVPGQEKENANFFEDRGAAIVVNRHEEILESVTSLLADEDTLHRMKKNIKDLHLANSSEVILEDILKESEMMTAKQKAKVLS
For the molecule B1, in experiment [1], the in vitro ClpXP proteolysis assay with 5 mM ATP: percent of purified His-UgtP degraded after 45 min, by anti-His immunoblot turned out to be 88% and the in vitro ClpXP proteolysis assay without ATP: percent of purified His-UgtP degraded, by anti-His immunoblot stood at 13%.
